According to paper PMC11813886, “Functional and structural characterization of mouse Factor H-related B protein unveils a novel dimerization domain shared by FHR-B and FH” (Frontiers in Immunology, 2025):

Molecular target: the molecule itself
Assay: AUC; sedimentation velocity, 48000 rpm, protein in PBS pH 7; c(s) distributions with SEDFIT; dimer to monomers

B1: human FHR-1 (natural protein, UniProt Q03591 19-330, looked up)
chain: EATFCDFPKINHGILYDEEKYKPFSQVPTGEVFYYSCEYNFVSPSKSFWTRITCTEEGWSPTPKCLRLCFFPFVENGHSESSGQTHLEGDTVQIICNTGYRLQNNENNISCVERGWSTPPKCRSTDTSCVNPPTVQNAHILSRQMSKYPSGERVRYECRSPYEMFGDEEVMCLNGNWTEPPQCKDSTGKCGPPPPIDNGDITSFPLSVYAPASSVEYQCQNLYQLEGNKRITCRNGQWSEPPKCLHPCVISREIMENYNIALRWTAKQKLYLRTGESAEFVCKRGYRLSSRSHTLRTTCWDGKLEYPTCAKR
notes: human factor H-related protein 1 (FHR-1); also called hFHR-1
  stoichiometry N: 2
